The text below walks through data of US20120030779A1 (UNIVERSITY OF UTAH RESEARCH FOUNDTION, published 2012).

The test concerns the target T1, glucose-6-phosphate dehydrogenase (G6PD), mouse heart (mouse, UniProt Q00612 2-515).
T1 construct: Endogenous protein immunoprecipitated or detected with rabbit anti-G6PD; also called G6PDH
The experiment in a line: co-immunoprecipitation (anti-G6PD IP, anti-CryAB blot) from NTg mouse heart homogenate.

T1 sequence (Q00612 2-515 limits assumed): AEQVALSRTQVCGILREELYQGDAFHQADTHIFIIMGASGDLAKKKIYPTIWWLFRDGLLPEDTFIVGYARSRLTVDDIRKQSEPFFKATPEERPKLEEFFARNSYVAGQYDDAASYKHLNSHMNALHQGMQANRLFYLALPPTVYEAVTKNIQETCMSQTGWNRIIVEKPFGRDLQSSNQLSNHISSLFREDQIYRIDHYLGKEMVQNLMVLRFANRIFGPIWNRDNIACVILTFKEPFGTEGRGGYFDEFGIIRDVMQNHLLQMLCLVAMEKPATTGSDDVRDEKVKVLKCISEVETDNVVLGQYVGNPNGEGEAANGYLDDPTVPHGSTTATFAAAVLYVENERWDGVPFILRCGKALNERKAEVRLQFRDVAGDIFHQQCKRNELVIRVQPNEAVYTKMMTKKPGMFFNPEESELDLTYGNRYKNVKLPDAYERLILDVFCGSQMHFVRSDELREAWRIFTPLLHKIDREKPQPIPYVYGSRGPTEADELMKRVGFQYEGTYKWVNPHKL
Method: Immunoprecipitation and Immunoblotting: Heart homogenates were first prepared in TBS (10 mM Tris, 150 mM NaCl, pH 7.4) and centrifuged at 10,000 g for 15 minutes at 4° C.

B1: mouse alphaB-crystallin (endogenous CryAB of non-transgenic mouse heart) (other, UniProt P23927 1-175, looked up)
chain: MDIAIHHPWIRRPFFPFHSPSRLFDQFFGEHLLESDLFSTATSLSPFYLRPPSFLRAPSWIDTGLSEMRLEKDRFSVNLDVKHFSPEELKVKVLGDVIEVHGKHEERQDEHGFISREFHRKYRIPADVDPLTITSSLSSDGVLTVNGPRKQVSGPERTIPITREEKPAVAAAPKK
notes: Only CryAB present in NTg heart extracts; also called CryAB (NTg)
Regarding B1, the binding result is given as “no binding”.
